Four molecules from publication PMC9482650, “Quantitative fragmentomics allow affinity mapping of interactomes” (Nature Communications, 2022) can be followed below.

Targets include LIMK2, P53671; TJP1_2, Q07157; SCRIB_2, Q14160; LNX1_2, Q8TBB1; DLG4_1, P78352; IL16_1, Q14005; GIPC2, Q8TF65; PDZRN4_1, Q6ZMN7; HTRA2, O43464; MAST1, Q9Y2H9; PARD3_3, Q8TEW0.
Holding throughout (assay): holdup assay
What all share (design): key: below the threshold = too weak to quantify, mostly under pKd 3.1 to 4

A further assay has as its target T1, DLG3_1, Q92796.
T1 sequence (Q92796 125-227, limits assumed, looked up): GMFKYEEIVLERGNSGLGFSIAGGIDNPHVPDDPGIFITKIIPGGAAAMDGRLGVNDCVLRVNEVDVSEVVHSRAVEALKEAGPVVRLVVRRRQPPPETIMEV

The next assay deals with T2, NHERF3_3, Q5T2W1.
T2 sequence (Q5T2W1 238-333, limits assumed, looked up): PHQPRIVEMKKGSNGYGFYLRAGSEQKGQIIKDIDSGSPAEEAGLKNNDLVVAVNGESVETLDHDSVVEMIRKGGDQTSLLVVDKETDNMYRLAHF

The next assay has as its target T3, CARD11, Q9BXL7.
T3 sequence (Q9BXL7 662-765, limits assumed, looked up): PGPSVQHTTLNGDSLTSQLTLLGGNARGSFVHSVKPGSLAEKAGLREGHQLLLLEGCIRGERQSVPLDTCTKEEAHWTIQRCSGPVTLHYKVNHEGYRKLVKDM

The target in a further assay is T4, SNTA1, Q13424.
T4 sequence (Q13424 82-180, limits assumed, looked up): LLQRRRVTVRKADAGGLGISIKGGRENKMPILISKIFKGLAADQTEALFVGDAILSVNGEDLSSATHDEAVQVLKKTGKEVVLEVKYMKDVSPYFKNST

The target in a further assay is T5, SIPA1L2, Q9P2F8.
T5 sequence (Q9P2F8 945-1036, limits assumed, looked up): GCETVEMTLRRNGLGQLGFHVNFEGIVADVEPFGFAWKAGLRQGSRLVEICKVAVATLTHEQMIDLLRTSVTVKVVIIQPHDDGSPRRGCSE

Another assay has as its target T6, SNTB1, Q13884.
T6 sequence (Q13884 107-205, limits assumed, looked up): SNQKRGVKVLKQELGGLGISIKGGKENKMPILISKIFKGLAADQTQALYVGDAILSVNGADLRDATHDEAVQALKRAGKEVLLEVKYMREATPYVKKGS

Another assay deals with T7, DLG3_3, Q92796.
T7 sequence (Q92796 374-475, limits assumed, looked up): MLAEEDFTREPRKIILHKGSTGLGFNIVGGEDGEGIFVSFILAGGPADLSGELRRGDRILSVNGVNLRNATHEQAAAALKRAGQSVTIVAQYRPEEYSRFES

Another assay concerns the target T8, TIAM2, Q8IVF5.
T8 sequence (Q8IVF5 885-986, limits assumed, looked up): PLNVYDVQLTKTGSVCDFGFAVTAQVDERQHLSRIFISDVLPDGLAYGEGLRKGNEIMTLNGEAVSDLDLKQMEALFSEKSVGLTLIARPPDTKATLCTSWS

Another assay deals with T9, RAPGEF6, Q8TEU7.
T9 sequence (Q8TEU7 525-625, limits assumed, looked up): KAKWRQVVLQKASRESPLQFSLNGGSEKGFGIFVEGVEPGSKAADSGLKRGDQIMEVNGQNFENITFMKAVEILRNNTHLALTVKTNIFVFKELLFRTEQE

In another assay the target is T10, NHERF3_1, Q5T2W1.
T10 sequence (Q5T2W1 4-100, limits assumed, looked up): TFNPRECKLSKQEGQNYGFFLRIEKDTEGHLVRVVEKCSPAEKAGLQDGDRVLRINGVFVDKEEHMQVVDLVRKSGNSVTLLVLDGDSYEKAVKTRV

The next assay addresses T11, DLG3_2, Q92796.
T11 sequence (Q92796 221-321, limits assumed, looked up): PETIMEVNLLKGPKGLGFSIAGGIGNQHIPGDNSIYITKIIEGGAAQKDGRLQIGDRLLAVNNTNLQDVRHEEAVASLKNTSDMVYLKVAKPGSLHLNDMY

The next assay concerns the target T12, SHANK1, Q9Y566.
T12 sequence (Q9Y566 658-767, limits assumed, looked up): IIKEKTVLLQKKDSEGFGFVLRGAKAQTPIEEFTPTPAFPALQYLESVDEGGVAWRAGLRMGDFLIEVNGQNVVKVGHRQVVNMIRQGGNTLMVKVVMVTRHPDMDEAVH

The target in the next assay is T13, DFNB31_2, Q9P202.
T13 sequence (Q9P202 274-371, limits assumed, looked up): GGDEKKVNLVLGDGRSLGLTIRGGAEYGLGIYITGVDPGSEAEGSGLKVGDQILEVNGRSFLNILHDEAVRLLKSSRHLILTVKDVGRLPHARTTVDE

The mark [1] stands for this setting: plain residues with an end cap or a label only (N-terminal biotin on a linker: ahx).
[2] abbreviates: plain residues with an end cap or a label only (N-terminal biotin on a linker: ttds).

Usually pKd stands for the Kd on a negative log10 scale, so that one unit is a factor of ten.

Chain of PDZRN4_1, Q6ZMN7 (Q6ZMN7 213-318): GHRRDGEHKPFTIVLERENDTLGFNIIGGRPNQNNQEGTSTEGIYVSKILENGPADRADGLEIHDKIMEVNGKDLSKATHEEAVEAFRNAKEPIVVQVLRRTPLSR
Chain of IL16_1, Q14005 (Q14005 210-306): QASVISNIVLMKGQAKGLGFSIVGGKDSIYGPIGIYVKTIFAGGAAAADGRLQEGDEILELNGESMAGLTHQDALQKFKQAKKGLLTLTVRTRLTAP
Chain of GIPC2, Q8TF65 (Q8TF65 112-203): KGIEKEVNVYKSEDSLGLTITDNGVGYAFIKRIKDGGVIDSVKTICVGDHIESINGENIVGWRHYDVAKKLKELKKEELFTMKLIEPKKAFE
Chain of HTRA2, O43464 (O43464 355-458): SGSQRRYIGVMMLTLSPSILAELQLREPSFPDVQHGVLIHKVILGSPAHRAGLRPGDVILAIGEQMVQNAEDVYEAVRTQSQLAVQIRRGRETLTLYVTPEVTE
Chain of DLG4_1, P78352 (P78352 62-152): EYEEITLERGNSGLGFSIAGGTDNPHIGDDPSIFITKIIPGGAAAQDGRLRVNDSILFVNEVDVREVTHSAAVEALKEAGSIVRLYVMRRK
Chain of TJP1_2, Q07157 (Q07157 181-274): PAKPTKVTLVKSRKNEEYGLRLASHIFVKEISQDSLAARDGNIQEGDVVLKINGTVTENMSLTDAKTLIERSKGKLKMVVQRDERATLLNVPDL
Chain of SCRIB_2, Q14160 (Q14160 857-960): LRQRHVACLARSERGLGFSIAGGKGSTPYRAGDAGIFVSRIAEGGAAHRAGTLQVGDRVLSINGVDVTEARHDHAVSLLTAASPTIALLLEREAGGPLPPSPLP
Chain of LNX1_2, Q8TBB1 (Q8TBB1 371-470): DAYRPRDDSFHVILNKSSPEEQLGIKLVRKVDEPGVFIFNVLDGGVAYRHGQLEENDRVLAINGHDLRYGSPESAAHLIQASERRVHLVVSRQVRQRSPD
Chain of PARD3_3, Q8TEW0 (Q8TEW0 582-685): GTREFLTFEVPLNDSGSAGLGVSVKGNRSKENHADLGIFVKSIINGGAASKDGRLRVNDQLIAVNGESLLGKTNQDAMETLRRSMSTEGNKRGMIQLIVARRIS
Chain of MAST1, Q9Y2H9 (Q9Y2H9 962-1065): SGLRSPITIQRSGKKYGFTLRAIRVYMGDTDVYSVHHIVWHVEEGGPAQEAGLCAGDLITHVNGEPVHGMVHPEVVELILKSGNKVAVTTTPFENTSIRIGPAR
Chain of LIMK2, P53671 (P53671 143-248): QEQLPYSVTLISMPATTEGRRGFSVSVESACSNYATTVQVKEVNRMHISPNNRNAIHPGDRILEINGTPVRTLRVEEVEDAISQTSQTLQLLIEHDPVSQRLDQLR

As for PKMKLNETSF [SHKBP1, Q8TBC3], the pKd result with LIMK2, P53671 (setting [1]) was “below the threshold”; in the assay with DLG3_1, Q92796 (setting [1]), “below the threshold”; in the assay with TJP1_2, Q07157 (setting [1]) it was “below the threshold”; with NHERF3_3, Q5T2W1 (setting [1]), “below the threshold”; in the assay with SCRIB_2, Q14160 (setting [1]), “below the threshold”; in the assay with LNX1_2, Q8TBB1 (setting [1]) it was “below the threshold”. Besides, the pKd entry with CARD11, Q9BXL7 (setting [1]) is reported as “below the threshold”; with DLG4_1, P78352 (setting [1]), “below the threshold”; in the assay with IL16_1, Q14005 (setting [1]) it was “below the threshold”; with SNTA1, Q13424 (setting [1]), “below the threshold”; with SIPA1L2, Q9P2F8 (setting [1]) it was “below the threshold”; in the assay with GIPC2, Q8TF65 (setting [1]), “below the threshold”. The pKd entry in the assay with SNTB1, Q13884 (setting [1]) was “below the threshold”; in the assay with DLG3_3, Q92796 (setting [1]), “below the threshold”; in the assay with PDZRN4_1, Q6ZMN7 (setting [1]) it was “below the threshold”; with TIAM2, Q8IVF5 (setting [1]), “below the threshold”; in the assay with HTRA2, O43464 (setting [1]) it was “below the threshold”; with RAPGEF6, Q8TEU7 (setting [1]), “below the threshold”. The pKd with MAST1, Q9Y2H9 (setting [1]) was 4.32; with PARD3_3, Q8TEW0 (setting [1]), “below the threshold”; with NHERF3_1, Q5T2W1 (setting [1]) it was 4.55; in the assay with DLG3_2, Q92796 (setting [1]) it was “below the threshold”; with SHANK1, Q9Y566 (setting [1]), 4.21; with DFNB31_2, Q9P202 (setting [1]) it was “below the threshold”.
For the molecule SRSRRRETAL [HPV33-E6, P06427], the pKd entry with LIMK2, P53671 (setting [2]) was “below the threshold”; in the assay with DLG3_1, Q92796 (setting [2]), 3.79; in the assay with TJP1_2, Q07157 (setting [2]), “below the threshold”; with NHERF3_3, Q5T2W1 (setting [2]), “below the threshold”; in the assay with SCRIB_2, Q14160 (setting [2]), 4.61; with LNX1_2, Q8TBB1 (setting [2]) it was “below the threshold”. The pKd entry in the assay with CARD11, Q9BXL7 (setting [2]) is “below the threshold”; in the assay with DLG4_1, P78352 (setting [2]), 4.57; with IL16_1, Q14005 (setting [2]) it was “below the threshold”; with SNTA1, Q13424 (setting [2]) it was 4.66; with SIPA1L2, Q9P2F8 (setting [2]), “below the threshold”; with GIPC2, Q8TF65 (setting [2]), “below the threshold”. Besides, the pKd was 5.05 with SNTB1, Q13884 (setting [2]); 5.07 in the assay with DLG3_3, Q92796 (setting [2]); 5.21 in the assay with PDZRN4_1, Q6ZMN7 (setting [2]); “below the threshold” with TIAM2, Q8IVF5 (setting [2]); 3.46 with HTRA2, O43464 (setting [2]); “below the threshold” with RAPGEF6, Q8TEU7 (setting [2]). Moreover, the pKd with MAST1, Q9Y2H9 (setting [2]) was 4.78; in the assay with PARD3_3, Q8TEW0 (setting [2]) it was “below the threshold”; in the assay with NHERF3_1, Q5T2W1 (setting [2]) it was 5.49; with DLG3_2, Q92796 (setting [2]), 4.61; in the assay with SHANK1, Q9Y566 (setting [2]), 3.51; with DFNB31_2, Q9P202 (setting [2]) it was 3.55.
For ADENEQVSAV [RAPGEF6, Q8TEU7], the pKd result is “below the threshold” with LIMK2, P53671 (setting [1]); “below the threshold” with DLG3_1, Q92796 (setting [1]); “below the threshold” with TJP1_2, Q07157 (setting [1]); “below the threshold” with NHERF3_3, Q5T2W1 (setting [1]); “below the threshold” in the assay with SCRIB_2, Q14160 (setting [1]); “below the threshold” with LNX1_2, Q8TBB1 (setting [1]). In addition, the pKd entry with CARD11, Q9BXL7 (setting [1]) was “below the threshold”; with DLG4_1, P78352 (setting [1]), 3.6; with IL16_1, Q14005 (setting [1]), 4.23; with SNTA1, Q13424 (setting [1]), 3.64; in the assay with SIPA1L2, Q9P2F8 (setting [1]) it was “below the threshold”; with GIPC2, Q8TF65 (setting [1]), “below the threshold”. Moreover, the pKd with SNTB1, Q13884 (setting [1]) is 3.71; with DLG3_3, Q92796 (setting [1]), “below the threshold”; in the assay with PDZRN4_1, Q6ZMN7 (setting [1]), “below the threshold”; in the assay with TIAM2, Q8IVF5 (setting [1]), “below the threshold”; with HTRA2, O43464 (setting [1]), “below the threshold”; with RAPGEF6, Q8TEU7 (setting [1]), “below the threshold”. In addition, the pKd in the assay with MAST1, Q9Y2H9 (setting [1]) was 4.05; in the assay with PARD3_3, Q8TEW0 (setting [1]), “below the threshold”; in the assay with NHERF3_1, Q5T2W1 (setting [1]), 3.53; with DLG3_2, Q92796 (setting [1]), 4; with SHANK1, Q9Y566 (setting [1]) it was 3.88; with DFNB31_2, Q9P202 (setting [1]) it was “below the threshold”.
On to FVETQHQTQV [FAT3, Q8TDW7], for which the pKd result with LIMK2, P53671 (setting [2]) is “below the threshold”; with DLG3_1, Q92796 (setting [2]), 3.85; in the assay with TJP1_2, Q07157 (setting [2]), “below the threshold”; with NHERF3_3, Q5T2W1 (setting [2]) it was “below the threshold”; with SCRIB_2, Q14160 (setting [2]), 4.15; with LNX1_2, Q8TBB1 (setting [2]), “below the threshold”. The pKd entry with CARD11, Q9BXL7 (setting [2]) was “below the threshold”; in the assay with DLG4_1, P78352 (setting [2]), 4.36; with IL16_1, Q14005 (setting [2]), “below the threshold”; in the assay with SNTA1, Q13424 (setting [2]), 4.09; with SIPA1L2, Q9P2F8 (setting [2]), “below the threshold”; with GIPC2, Q8TF65 (setting [2]) it was 3.66. The pKd was 4.19 with SNTB1, Q13884 (setting [2]); 3.58 with DLG3_3, Q92796 (setting [2]); “below the threshold” in the assay with PDZRN4_1, Q6ZMN7 (setting [2]); “below the threshold” with TIAM2, Q8IVF5 (setting [2]); “below the threshold” with HTRA2, O43464 (setting [2]); “below the threshold” with RAPGEF6, Q8TEU7 (setting [2]). For the same molecule, the pKd was 4.8 with MAST1, Q9Y2H9 (setting [2]); “below the threshold” with PARD3_3, Q8TEW0 (setting [2]); 4.72 with NHERF3_1, Q5T2W1 (setting [2]); 4.71 with DLG3_2, Q92796 (setting [2]); 3.63 in the assay with SHANK1, Q9Y566 (setting [2]); “below the threshold” with DFNB31_2, Q9P202 (setting [2]).
